Reference: publication PMC12087824

Key:
[1] = target: human IL-2 receptor chain beta (IL-2Rβ, CD122) (human) (UniProt P14784)
[2] = target: human IL-2 receptor chain beta (IL-2Rβ, CD122) (human) (UniProt P14784); assay: BLI; human IL-2Rβ immobilised; Neo-2/15 WT at 20–2.5 nM

Chain of human IL-2 receptor chain beta (IL-2Rβ, CD122) (human) (P14784 27-551): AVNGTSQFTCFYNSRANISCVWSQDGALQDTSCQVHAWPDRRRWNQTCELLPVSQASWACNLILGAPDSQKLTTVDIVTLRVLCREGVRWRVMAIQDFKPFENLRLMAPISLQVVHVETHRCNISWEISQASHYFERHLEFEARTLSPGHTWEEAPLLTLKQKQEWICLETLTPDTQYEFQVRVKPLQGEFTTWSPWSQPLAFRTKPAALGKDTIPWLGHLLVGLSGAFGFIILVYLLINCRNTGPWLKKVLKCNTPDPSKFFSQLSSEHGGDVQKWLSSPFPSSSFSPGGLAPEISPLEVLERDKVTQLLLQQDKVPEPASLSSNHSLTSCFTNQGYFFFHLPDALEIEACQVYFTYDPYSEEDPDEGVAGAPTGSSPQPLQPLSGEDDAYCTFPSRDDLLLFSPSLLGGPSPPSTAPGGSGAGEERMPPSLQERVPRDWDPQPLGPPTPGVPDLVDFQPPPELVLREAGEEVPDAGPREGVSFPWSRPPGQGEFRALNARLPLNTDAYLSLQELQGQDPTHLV

neoleukin-2/15 (Neo-2/15) WT (designed binder)
EC50 of STAT5 phosphorylation (pSTAT5) in purified splenic T cells of balb-c mice, ex vivo, serial dilutions [1]: 4.1 pM
Kd [2]: 2.5 nM
